T1: Tau409-426 pS422 peptide (human)
T1 chain: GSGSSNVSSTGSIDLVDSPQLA

B1: hV0022 control (antibody, V domains shown)
VH: QVQLQQPGTELVKPGSSVNLSCKASGFTFTRYWMHWVKERPGHGLEWIGNINPNNGGTDFNEKFKNKATLTVHKSSTTVFIQLSSLTSEDSAVYYCARGTGTGAMDYWGQGTSVTVSS
VL: DVVMTQTPLSLPVSLGDQASISCRSSQSLVHNNGITYLYWYLQKPGQSPKLLIYRVSNRFSGVPDRFGGSGSGTDFTLKISRVEAEDLGVYFCFQGTHVPRTFGGGTKLEIK
modifications: enriched paired helical filament tau, hyperphosphorylated
B2: Ab5 (antibody, V domains shown)
VH: QVQLVQSGAEVKKPGASVKVSCKASGFTFTRYWMHWVKERPGQGLEWMGNINPNNGGTDFNEKFKNRVTMTVHKSTSTVFIQLSSLRSEDTAVYYCARGTGTGAMDYWGQGTSVTVSS
VL: DIVMTQTPLSSPVTLGQPASISCRSSQSLVHNNGITYLYWYQQRPGQPPRLLIYRVSNRFSGVPDRFSGSGAGTDFTLKINRVEAEDVGVYFCFQGTHVPRTFGQGTKLEIK
modifications: enriched paired helical filament tau, hyperphosphorylated
B3: Ab4 (antibody, V domains shown)
VH: QVQLVQSGAEVKKPGASVKVSCKASGFTFTRYWMHWVKERPGQGLEWMGNINPNNGGTDFNEKFKNRVTMTVHKSTSTVFIQLSSLRSEDTAVYYCARGTGTGAMDYWGQGTSVTVSS
VL: DIVMTQSPLSLSVTPGQPASISCRSSQSLVHNNGITYLYWYLQKPGQSPQLLIYRVSNRFSGVPDRFSGSGSGTDFTLKISRVEAEDVGVYYCFQGTHVPRTFGQGTKVEIK
modifications: enriched paired helical filament tau, hyperphosphorylated
B4: Ab2 (antibody, V domains shown)
VH: QVQLVESGAEVKKPGASVKVSCKASGFTFTRYWMHWVKERPGHGLEWMGNINPNNGGTDFNEKFKNRVTITVHKSASTAYMELSSLRSEDTAVYYCARGTGTGAMDYWGQGTTVTVSS
VL: DVVMTQSPLSLPVTLGQPASISCRSSQSLVHNNGITYLYWYQQRPGQSPRLLIYRVSNRFSGVPDRFSGSGSGTDFTLKISRVEAEDVGVYYCFQGTHVPRTFGQGTKLEIK
B5: Ab1 (antibody, V domains shown)
VH: QVQLVQSGAEVKKSGASVKVSCKASGFTFTRYWMHWVRQAPGQGLEWIGNINPNNGGTDFNEKFKNRVTLIRDTSTTTVFIQLTSLTSEDSAVYYCARGTGTGAMDYWGQGTLVTVSS
VL: DIVMTQSPLSLSVTPGQPASISCRSSQSLVHNNGITYLYWYLQKPGQSPQLLIYRVSNRFSGVPDRFSGSGSGTDFTLKISRVEAEDVGVYYCFQGTHVPRTFGQGTKVEIK
B6: Ab7 (antibody, V domains shown)
VH: QVQLVQSGAEVKKPGASVKVSCKASGFTFTRYWMHWVRERPGHGLEWIGNINPNNGGTDFNEKFKNRVTMTVHKSISTAYMELSSLRSDDSAVYYCARGTGTGAMDYWGQGTLVTVSS
VL: DVVMTQSPLSLPVTLGQPASISCRSSQSLVHNNGITYLYWYQQRPGQSPRLLIYRVSNRFSGVPDRFSGSGSGTDFTLKISRVEAEDVGVYYCFQGTHVPRTFGQGTKLEIK
B7: Ab6 (antibody, V domains shown)
VH: QVQLVESGAEVKKPGASVKVSCKASGFTFTRYWMHWVKERPGHGLEWMGNINPNNGGTDFNEKFKNRVTITVHKSASTAYMELSSLRSEDTAVYYCARGTGTGAMDYWGQGTTVTVSS
VL: DIVMTQSPLSLSVTPGQPASISCRSSQSLVHNNGITYLYWYLQKPGQSPQLLIYRVSNRFSGVPDRFSGSGSGTDFTLKISRVEAEDVGVYYCFQGTHVPRTFGQGTKVEIK
B8: Ab9 (antibody, V domains shown)
VH: EVQLVQSGAEVKKPGSSVKVSCKASGFTFTRYWMHWVKERPGHGLEWIGNINPNNGGTDFNEKFKNRVTMTVHKSITTAYMELSRLTSDDSAVYYCARGTGTGAMDYWGQGTLVSVSS
VL: DIVMTQSPLSLSVTPGQPASISCRSSQSLVHNNGITYLYWYLQKPGQSPQLLIYRVSNRFSGVPDRFSGSGSGTDFTLKISRVEAEDVGVYYCFQGTHVPRTFGQGTKVEIK
B9: Ab5 (antibody, V domains shown)
VH: QVQLVQSGAEVKKPGASVKVSCKASGFTFTRYWMHWVKERPGQGLEWMGNINPNNGGTDFNEKFKNRVTMTVHKSTSTVFIQLSSLRSEDTAVYYCARGTGTGAMDYWGQGTSVTVSS
VL: DIVMTQTPLSSPVTLGQPASISCRSSQSLVHNNGITYLYWYQQRPGQPPRLLIYRVSNRFSGVPDRFSGSGAGTDFTLKINRVEAEDVGVYFCFQGTHVPRTFGQGTKLEIK
B10: Ab8 (antibody, V domains shown)
VH: QVQLVQSGAEVKKSGASVKVSCKASGFTFTRYWMHWVRQAPGQGLEWIGNINPNNGGTDFNEKFKNRVTLIRDTSTTTVFIQLTSLTSEDSAVYYCARGTGTGAMDYWGQGTLVTVSS
VL: DVVMTQSPLSLPVTLGQPASISCRSSQSLVHNNGITYLYWYQQRPGQSPRLLIYRVSNRFSGVPDRFSGSGSGTDFTLKISRVEAEDVGVYYCFQGTHVPRTFGQGTKLEIK
B11: Ab3 (antibody, V domains shown)
VH: EVQLVQSGAEVKKPGSSVKVSCKASGFTFTRYWMHWVKERPGHGLEWIGNINPNNGGTDFNEKFKNRVTMTVHKSITTAYMELSRLTSDDSAVYYCARGTGTGAMDYWGQGTLVSVSS
VL: DVVMTQSPLSLPVTLGQPASISCRSSQSLVHNNGITYLYWYQQRPGQSPRLLIYRVSNRFSGVPDRFSGSGSGTDFTLKISRVEAEDVGVYYCFQGTHVPRTFGQGTKLEIK
modifications: non-phosphorylated recombinant tau
B12: Ab1 (antibody, V domains shown)
VH: QVQLVQSGAEVKKSGASVKVSCKASGFTFTRYWMHWVRQAPGQGLEWIGNINPNNGGTDFNEKFKNRVTLIRDTSTTTVFIQLTSLTSEDSAVYYCARGTGTGAMDYWGQGTLVTVSS
VL: DIVMTQSPLSLSVTPGQPASISCRSSQSLVHNNGITYLYWYLQKPGQSPQLLIYRVSNRFSGVPDRFSGSGSGTDFTLKISRVEAEDVGVYYCFQGTHVPRTFGQGTKVEIK
modifications: non-phosphorylated recombinant tau
B13: Ab5 (antibody, V domains shown)
VH: QVQLVQSGAEVKKPGASVKVSCKASGFTFTRYWMHWVKERPGQGLEWMGNINPNNGGTDFNEKFKNRVTMTVHKSTSTVFIQLSSLRSEDTAVYYCARGTGTGAMDYWGQGTSVTVSS
VL: DIVMTQTPLSSPVTLGQPASISCRSSQSLVHNNGITYLYWYQQRPGQPPRLLIYRVSNRFSGVPDRFSGSGAGTDFTLKINRVEAEDVGVYFCFQGTHVPRTFGQGTKLEIK
modifications: non-phosphorylated recombinant tau
B14: Ab8 (antibody, V domains shown)
VH: QVQLVQSGAEVKKSGASVKVSCKASGFTFTRYWMHWVRQAPGQGLEWIGNINPNNGGTDFNEKFKNRVTLIRDTSTTTVFIQLTSLTSEDSAVYYCARGTGTGAMDYWGQGTLVTVSS
VL: DVVMTQSPLSLPVTLGQPASISCRSSQSLVHNNGITYLYWYQQRPGQSPRLLIYRVSNRFSGVPDRFSGSGSGTDFTLKISRVEAEDVGVYYCFQGTHVPRTFGQGTKLEIK
modifications: non-phosphorylated recombinant tau
B15: Ab9 (antibody, V domains shown)
VH: EVQLVQSGAEVKKPGSSVKVSCKASGFTFTRYWMHWVKERPGHGLEWIGNINPNNGGTDFNEKFKNRVTMTVHKSITTAYMELSRLTSDDSAVYYCARGTGTGAMDYWGQGTLVSVSS
VL: DIVMTQSPLSLSVTPGQPASISCRSSQSLVHNNGITYLYWYLQKPGQSPQLLIYRVSNRFSGVPDRFSGSGSGTDFTLKISRVEAEDVGVYYCFQGTHVPRTFGQGTKVEIK
modifications: non-phosphorylated recombinant tau
B16: Ab10 (antibody, V domains shown)
VH: EVQLVQSGAEVKKPGSSVKVSCKASGFTFTRYWMHWVKERPGHGLEWIGNINPNNGGTDFNEKFKNRVTMTVHKSITTAYMELSRLTSDDSAVYYCARGTGTGAMDYWGQGTLVSVSS
VL: DIVMTQTPLSSPVTLGQPASISCRSSQSLVHNNGITYLYWYQQRPGQPPRLLIYRVSNRFSGVPDRFSGSGAGTDFTLKINRVEAEDVGVYFCFQGTHVPRTFGQGTKLEIK
modifications: non-phosphorylated recombinant tau
B17: Ab4 (antibody, V domains shown)
VH: QVQLVQSGAEVKKPGASVKVSCKASGFTFTRYWMHWVKERPGQGLEWMGNINPNNGGTDFNEKFKNRVTMTVHKSTSTVFIQLSSLRSEDTAVYYCARGTGTGAMDYWGQGTSVTVSS
VL: DIVMTQSPLSLSVTPGQPASISCRSSQSLVHNNGITYLYWYLQKPGQSPQLLIYRVSNRFSGVPDRFSGSGSGTDFTLKISRVEAEDVGVYYCFQGTHVPRTFGQGTKVEIK
modifications: non-phosphorylated recombinant tau
B18: Ab2 (antibody, V domains shown)
VH: QVQLVESGAEVKKPGASVKVSCKASGFTFTRYWMHWVKERPGHGLEWMGNINPNNGGTDFNEKFKNRVTITVHKSASTAYMELSSLRSEDTAVYYCARGTGTGAMDYWGQGTTVTVSS
VL: DVVMTQSPLSLPVTLGQPASISCRSSQSLVHNNGITYLYWYQQRPGQSPRLLIYRVSNRFSGVPDRFSGSGSGTDFTLKISRVEAEDVGVYYCFQGTHVPRTFGQGTKLEIK
modifications: non-phosphorylated recombinant tau
B19: Ab11 (antibody, V domains shown)
VH: QVQLVQSGAEVKKPGASVKVSCKASGFTFTRYWMHWVKERPGQGLEWMGNINPNNGGTDFNEKFKNRVTMTVHKSTSTVFIQLSSLRSEDTAVYYCARGTGTGAMDYWGQGTSVTVSS
VL: DVVMTQSPLSLPVTLGQPASISCRSSQSLVHNNGITYLYWYQQRPGQSPRLLIYRVSNRFSGVPDRFSGSGSGTDFTLKISRVEAEDVGVYYCFQGTHVPRTFGQGTKLEIK
modifications: non-phosphorylated recombinant tau
B20: Ab7 (antibody, V domains shown)
VH: QVQLVQSGAEVKKPGASVKVSCKASGFTFTRYWMHWVRERPGHGLEWIGNINPNNGGTDFNEKFKNRVTMTVHKSISTAYMELSSLRSDDSAVYYCARGTGTGAMDYWGQGTLVTVSS
VL: DVVMTQSPLSLPVTLGQPASISCRSSQSLVHNNGITYLYWYQQRPGQSPRLLIYRVSNRFSGVPDRFSGSGSGTDFTLKISRVEAEDVGVYYCFQGTHVPRTFGQGTKLEIK
modifications: non-phosphorylated recombinant tau
B21: Ab6 (antibody, V domains shown)
VH: QVQLVESGAEVKKPGASVKVSCKASGFTFTRYWMHWVKERPGHGLEWMGNINPNNGGTDFNEKFKNRVTITVHKSASTAYMELSSLRSEDTAVYYCARGTGTGAMDYWGQGTTVTVSS
VL: DIVMTQSPLSLSVTPGQPASISCRSSQSLVHNNGITYLYWYLQKPGQSPQLLIYRVSNRFSGVPDRFSGSGSGTDFTLKISRVEAEDVGVYYCFQGTHVPRTFGQGTKVEIK
modifications: non-phosphorylated recombinant tau

Biological target: ePHF (human, UniProt P10636)
Test: ELISA

Chain of ePHF (P10636 2-758): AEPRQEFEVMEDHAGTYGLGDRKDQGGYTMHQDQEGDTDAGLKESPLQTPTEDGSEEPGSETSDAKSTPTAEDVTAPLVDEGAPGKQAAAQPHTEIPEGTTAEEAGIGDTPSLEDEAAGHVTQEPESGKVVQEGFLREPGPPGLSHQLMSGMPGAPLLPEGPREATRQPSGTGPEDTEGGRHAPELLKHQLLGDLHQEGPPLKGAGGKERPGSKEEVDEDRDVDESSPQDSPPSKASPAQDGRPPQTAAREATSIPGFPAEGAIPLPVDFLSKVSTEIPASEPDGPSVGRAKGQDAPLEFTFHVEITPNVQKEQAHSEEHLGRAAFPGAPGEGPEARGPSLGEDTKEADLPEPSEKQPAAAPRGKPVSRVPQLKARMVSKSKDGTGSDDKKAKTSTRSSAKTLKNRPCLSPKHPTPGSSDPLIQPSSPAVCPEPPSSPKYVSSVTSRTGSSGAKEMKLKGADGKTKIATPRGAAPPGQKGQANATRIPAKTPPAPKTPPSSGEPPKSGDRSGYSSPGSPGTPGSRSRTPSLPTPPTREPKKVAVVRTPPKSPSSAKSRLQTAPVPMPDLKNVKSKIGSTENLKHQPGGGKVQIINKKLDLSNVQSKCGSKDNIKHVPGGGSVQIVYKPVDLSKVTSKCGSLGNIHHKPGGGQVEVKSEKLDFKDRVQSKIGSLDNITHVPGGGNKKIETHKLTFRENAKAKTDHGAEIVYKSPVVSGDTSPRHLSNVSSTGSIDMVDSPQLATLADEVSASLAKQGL

**Q.** For B1, which EC50 is on record?
**A.** 0.08 nM

**Q.** B2 was tested. Which EC50 did it give?
**A.** 0.19 nM

**Q.** How did the EC50 turn out when B3 was run?
**A.** 0.18 nM

Biological target: T1, Tau409-426 pS422 peptide
Test: SPR

**Q.** With B4 as the binder, how does the Kd read?
**A.** 0.0386 nM

**Q.** Which Kd does the source give for B5 here?
**A.** 0.0408 nM

**Q.** With B6 as the binder, how does the Kd read?
**A.** 0.0398 nM

**Q.** Which Kd does the source give for B7 here?
**A.** 0.0398 nM

**Q.** How did the Kd turn out when B8 was run?
**A.** 0.0763 nM

**Q.** Which Kd does the source give for B9 here?
**A.** 0.0294 nM

**Q.** Which Kd does the source give for B10 here?
**A.** 0.0533 nM

Biological target: wild type tau (human)
Test: ELISA

Chain of wild type tau (human) (P10636 other isoform, or with tags, fused parts or gaps): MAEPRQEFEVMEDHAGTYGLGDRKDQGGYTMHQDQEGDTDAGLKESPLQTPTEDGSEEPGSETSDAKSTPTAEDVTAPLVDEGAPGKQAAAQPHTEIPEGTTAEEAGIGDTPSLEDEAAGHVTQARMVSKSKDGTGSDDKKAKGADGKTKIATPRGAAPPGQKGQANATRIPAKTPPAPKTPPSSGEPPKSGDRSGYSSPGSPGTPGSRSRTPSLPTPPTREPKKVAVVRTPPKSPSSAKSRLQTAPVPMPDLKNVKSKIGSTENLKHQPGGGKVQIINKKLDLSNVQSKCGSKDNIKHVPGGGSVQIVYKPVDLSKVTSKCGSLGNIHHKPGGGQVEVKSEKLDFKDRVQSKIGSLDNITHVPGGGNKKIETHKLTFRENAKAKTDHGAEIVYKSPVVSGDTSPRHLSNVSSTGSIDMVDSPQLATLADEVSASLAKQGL

**Q.** Does B11 bind?
**A.** no binding

**Q.** Does B12 bind?
**A.** no binding

**Q.** Does B13 bind?
**A.** no binding

**Q.** Does B14 bind?
**A.** no binding

**Q.** Does B15 bind?
**A.** no binding

**Q.** Does B16 bind?
**A.** no binding

**Q.** Does B17 bind?
**A.** no binding

**Q.** Does B18 bind?
**A.** no binding

**Q.** Does B19 bind?
**A.** no binding

**Q.** Does B20 bind?
**A.** no binding

**Q.** Does B21 bind?
**A.** no binding

Source: patent US20260356924 (published 2026)
